US20190071490A1, “Preventing Post-Ictal Headaches” (Beth Israel Deaconess Medical Center, Inc., priority 2017, published 2019)

T1: rat α-CGRP (Rattus norvegicus, UniProt P01256)
T1 construct: rat α (1-37); purchased GenScript Corporation or Global Peptide Services
T1 sequence (P01256 83-119 limits assumed): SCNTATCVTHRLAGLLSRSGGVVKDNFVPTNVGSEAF

T2: human α-CGRP (Homo sapiens, UniProt P06881)
T2 construct: 1-37 (WT); purchased GenScript Corporation or Global Peptide Services
T2 sequence (P06881 83-119 limits assumed): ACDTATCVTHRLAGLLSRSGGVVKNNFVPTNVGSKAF


Key:
rat α-CGRP = target: T1, rat α-CGRP; experiment: Biacore SPR affinity of Fab fragments to N-biotinylated rat α-CGRP on SA chip; format: binding; settings: 37° C., screening mode except underlined values
Description: (§1) Affinity determination of the Fabs. Affinities of the anti-CGRP monoclonal antibodies were determined at either 25° C. or 37° C. using the BIACORE3000™ surface plasmon resonance (SPR) system (Biacore, INC, Piscataway N.J.) with the manufacture's own running buffer, HBS-EP (10 mM HEPES pH 7.4, 150 mM NaCl, 3 mM EDTA, 0.005% v/v polysorbate P20). Affinity was determined by capturing N-terminally biotinylated CGRP peptides (custom ordered from GenScript Corporation, New Jersey or Global Peptide Services, Colorado) via pre-immobilized streptavidin on SA chip and measuring binding kinetics of antibody Fab titrated across the CGRP surface. Biotinylated CGRP was diluted into HBS-EP and injected over the chip at a concentration of less than 0.001 mg/ml. Using variable flow time across the individual chip channels, two ranges of antigen density were achieved: <50 response units (RU) for detailed kinetic studies and about 800 RU for concentration studies and screening. […] After each binding cycle, surfaces were regenerated with 25 mM NaOH in 25% v/v ethanol, which was tolerated over hundreds of cycles. Kinetic association rate (kon) and dissociation rate (koff) were obtained simultaneously by fitting the data to a 1:1 Langmuir binding model (Karlsson et al. (1994). Methods Enzymology 6. 99-110) using the BIAevaluation program. Global equilibrium dissociation constants (KD) or “affinities” were calculated from the ratio KD=koff/kon.
(§2) Biacore assay for affinity determination. […] All Biacore assays were conducted in HBS-EP running buffer (10 mM HEPES pH 7.4, 150 mM NaCl, 3 mM EDTA, 0.005% v/v polysorbate P20). CGRP surfaces were prepared by diluting the N-biotinylated CGRP to a concentration of less than 0.001 mg/mL into HBS-EP buffer and injecting it across the SA sensor chip using variable contact times. Low capacity surfaces, corresponding to capture levels <50 response units (RU) were used for high-resolution kinetic studies, whereas high capacity surfaces (about 800 RU of captured CGRP) were used for concentration studies, screening, and solution affinity determinations. […] Samples were typically injected for 1 minute at 100 μL/min and dissociation times of at least 10 minutes were allowed. After each binding cycle, surfaces were regenerated with 25 mM NaOH in 25% v/v ethanol, which was tolerated over hundreds of cycles. An entire titration series (typically generated in duplicate) was fit globally to a 1:1 Langmuir binding model using the BIAevaluation program. This returned a unique pair of association and dissociation kinetic rate constants (respectively, kon and koff) for each binding interaction, whose ratio gave the equilibrium dissociation constant (KD=koff/kon).
(§3) High-resolution analysis of binding interactions with extremely slow off rates. […] The protocol described above was used with the following modifications. The association rate constant (kon) was determined by injecting a 2-fold titration series (in duplicate) spanning 550 nM-1 nM for 30 seconds at 100 μL/min and allowing only a 30 second dissociation phase. The dissociation rate constant (koff) was determined by injecting three concentrations (high, medium, and low) of the same titration series in duplicate for 30 seconds and allowing a 2-hour dissociation phase. The affinity (KD) of each interaction was obtained by combining the kon and koff values obtained in both types of experiments, as shown in Table 4.

human α-CGRP = target: T2, human α-CGRP; experiment: Biacore SPR affinity of Fab fragments to N-biotinylated human α-CGRP on SA chip; format: binding; settings: 37° C., screening mode except underlined values
Description: as §1, §2, §3

α-rat koff (rat α-CGRP) [s⁻¹]	α-human koff (human α-CGRP) [s⁻¹]	α-rat koff (1/s) (rat α-CGRP)	Molecule
0.0104	0.000322	–	M57: G1 variant; L1 R28N T30D; L2 L56S; H2 E54K A57N S58E; HC-FW3 L99T A100V (antibody, V domains shown) VH: EVQLVESGGGLVQPGGSLRLSCAASGFTFSNYWISWVRQAPGKGLEWVAEIRSKSDNEATHYAEAVKGRFTISRDNAKNSLYLQMNSLRAEDTAVYYCTVYFDYGLAIQNYWGQGTLVTVSS VL: EIVLTQSPATLSLSPGERATLSCKASKNVDTYVSWYQQKPGQAPRLLIYGASNRYSGIPARFSGSGSGTDFTLTISSLEPEDFAVYYCSQSYNYPYTFGQGTKLEIK
0.0123	0.000524	–	M59: G1 variant; L1 R28N T30D; L2 L56S; H2 E54K A57N S58N H61F; HC-FW3 L99T A100V (antibody, V domains shown) VH: EVQLVESGGGLVQPGGSLRLSCAASGFTFSNYWISWVRQAPGKGLEWVAEIRSKSDNNATFYAEAVKGRFTISRDNAKNSLYLQMNSLRAEDTAVYYCTVYFDYGLAIQNYWGQGTLVTVSS VL: EIVLTQSPATLSLSPGERATLSCKASKNVDTYVSWYQQKPGQAPRLLIYGASNRYSGIPARFSGSGSGTDFTLTISSLEPEDFAVYYCSQSYNYPYTFGQGTKLEIK
0.00265	0.0015	–	M63: G1 variant; L1 R28N T30G; L2 G50A; H2 E54K A57N S58T; HC-FW3 L99T A100V (antibody, V domains shown) VH: EVQLVESGGGLVQPGGSLRLSCAASGFTFSNYWISWVRQAPGKGLEWVAEIRSKSDNTATHYAEAVKGRFTISRDNAKNSLYLQMNSLRAEDTAVYYCTVYFDYGLAIQNYWGQGTLVTVSS VL: EIVLTQSPATLSLSPGERATLSCKASKNVGTYVSWYQQKPGQAPRLLIYAASNRYLGIPARFSGSGSGTDFTLTISSLEPEDFAVYYCSQSYNYPYTFGQGTKLEIK
0.00511	0.00052	–	M66: G1 variant; L1 R28N T30G; L2 L561; H2 E54K A57E; HC-FW3 L99T A100V (antibody, V domains shown) VH: EVQLVESGGGLVQPGGSLRLSCAASGFTFSNYWISWVRQAPGKGLEWVAEIRSKSDESATHYAEAVKGRFTISRDNAKNSLYLQMNSLRAEDTAVYYCTVYFDYGLAIQNYWGQGTLVTVSS VL: EIVLTQSPATLSLSPGERATLSCKASKNVGTYVSWYQQKPGQAPRLLIYGASNRYIGIPARFSGSGSGTDFTLTISSLEPEDFAVYYCSQSYNYPYTFGQGTKLEIK
0.0272	0.000911	–	M60: G1 variant; L1 R28N T30D; L2 L56S; H2 E54K A57N S58R H61F; HC-FW3 L99T A100V (antibody, V domains shown) VH: EVQLVESGGGLVQPGGSLRLSCAASGFTFSNYWISWVRQAPGKGLEWVAEIRSKSDNRATFYAEAVKGRFTISRDNAKNSLYLQMNSLRAEDTAVYYCTVYFDYGLAIQNYWGQGTLVTVSS VL: EIVLTQSPATLSLSPGERATLSCKASKNVDTYVSWYQQKPGQAPRLLIYGASNRYSGIPARFSGSGSGTDFTLTISSLEPEDFAVYYCSQSYNYPYTFGQGTKLEIK
0.00676	0.000428	–	M68: G1 variant; L1 R28N T30G; L2 L561; H2 E54K A57N S58D E64D; HC-FW3 L99T A100V (antibody, V domains shown) VH: EVQLVESGGGLVQPGGSLRLSCAASGFTFSNYWISWVRQAPGKGLEWVAEIRSKSDNDATHYADAVKGRFTISRDNAKNSLYLQMNSLRAEDTAVYYCTVYFDYGLAIQNYWGQGTLVTVSS VL: EIVLTQSPATLSLSPGERATLSCKASKNVGTYVSWYQQKPGQAPRLLIYGASNRYIGIPARFSGSGSGTDFTLTISSLEPEDFAVYYCSQSYNYPYTFGQGTKLEIK
0.00171	0.00082	–	M67: G1 variant; L1 R28N T30G; L2 L561; H2 E54K A57F; HC-FW3 L99T A100V (antibody, V domains shown) VH: EVQLVESGGGLVQPGGSLRLSCAASGFTFSNYWISWVRQAPGKGLEWVAEIRSKSDFSATHYAEAVKGRFTISRDNAKNSLYLQMNSLRAEDTAVYYCTVYFDYGLAIQNYWGQGTLVTVSS VL: EIVLTQSPATLSLSPGERATLSCKASKNVGTYVSWYQQKPGQAPRLLIYGASNRYIGIPARFSGSGSGTDFTLTISSLEPEDFAVYYCSQSYNYPYTFGQGTKLEIK
–	0.00195	No binding	M58: G1 variant; L1 R28N T30D; L2 L56S; H2 E54K A57N S58I H61F; HC-FW3 L99T A100V (antibody, V domains shown) VH: EVQLVESGGGLVQPGGSLRLSCAASGFTFSNYWISWVRQAPGKGLEWVAEIRSKSDNIATFYAEAVKGRFTISRDNAKNSLYLQMNSLRAEDTAVYYCTVYFDYGLAIQNYWGQGTLVTVSS VL: EIVLTQSPATLSLSPGERATLSCKASKNVDTYVSWYQQKPGQAPRLLIYGASNRYSGIPARFSGSGSGTDFTLTISSLEPEDFAVYYCSQSYNYPYTFGQGTKLEIK
0.00521	0.000459	–	M61: G1 variant; L1 R28N T30G; L2 A51H; H2 E54Q A57N H61F; HC-FW3 L99T A100V (antibody, V domains shown) VH: EVQLVESGGGLVQPGGSLRLSCAASGFTFSNYWISWVRQAPGKGLEWVAEIRSQSDNSATFYAEAVKGRFTISRDNAKNSLYLQMNSLRAEDTAVYYCTVYFDYGLAIQNYWGQGTLVTVSS VL: EIVLTQSPATLSLSPGERATLSCKASKNVGTYVSWYQQKPGQAPRLLIYGHSNRYLGIPARFSGSGSGTDFTLTISSLEPEDFAVYYCSQSYNYPYTFGQGTKLEIK
0.00575	0.000557	–	M62: G1 variant; L1 R28N T30G; L2 A51H L56T; H2 E54K A57N S58E; HC-FW3 L99T A100V (antibody, V domains shown) VH: EVQLVESGGGLVQPGGSLRLSCAASGFTFSNYWISWVRQAPGKGLEWVAEIRSKSDNEATHYAEAVKGRFTISRDNAKNSLYLQMNSLRAEDTAVYYCTVYFDYGLAIQNYWGQGTLVTVSS VL: EIVLTQSPATLSLSPGERATLSCKASKNVGTYVSWYQQKPGQAPRLLIYGHSNRYTGIPARFSGSGSGTDFTLTISSLEPEDFAVYYCSQSYNYPYTFGQGTKLEIK
0.0234	0.00132	–	M64: G1 variant; L1 R28N T30G; L2 G50A; H2 E54K A57N S58V; HC-FW3 L99T A100V (antibody, V domains shown) VH: EVQLVESGGGLVQPGGSLRLSCAASGFTFSNYWISWVRQAPGKGLEWVAEIRSKSDNVATHYAEAVKGRFTISRDNAKNSLYLQMNSLRAEDTAVYYCTVYFDYGLAIQNYWGQGTLVTVSS VL: EIVLTQSPATLSLSPGERATLSCKASKNVGTYVSWYQQKPGQAPRLLIYAASNRYLGIPARFSGSGSGTDFTLTISSLEPEDFAVYYCSQSYNYPYTFGQGTKLEIK
0.00407	0.000803	–	M65: G1 variant; L1 R28N T30G; L2 G50A L56I; H2 E54K A57C; HC-FW3 L99T A100V (antibody, V domains shown) VH: EVQLVESGGGLVQPGGSLRLSCAASGFTFSNYWISWVRQAPGKGLEWVAEIRSKSDCSATHYAEAVKGRFTISRDNAKNSLYLQMNSLRAEDTAVYYCTVYFDYGLAIQNYWGQGTLVTVSS VL: EIVLTQSPATLSLSPGERATLSCKASKNVGTYVSWYQQKPGQAPRLLIYAASNRYIGIPARFSGSGSGTDFTLTISSLEPEDFAVYYCSQSYNYPYTFGQGTKLEIK
